From ChEMBL document CHEMBL2074310, “ATP-dependent organic anion transport system in normal and TR- rat liver canalicular membranes” (Am J Physiol, 1992)

Substrate: O=C1OC(c2ccc(O)c(S(=O)(=O)O)c2)(c2ccc(O)c(S(=O)(=O)O)c2)c2c(Br)c(Br)c(Br)c(Br)c21
Experiment: TP_TRANSPORTER: uptake in bile canalicular membrane vesicles from Wistar rat
Format: functional, cell membranes, Bile canalicular membrane vesicle

B1: ATP-binding cassette sub-family C member 2 (Rattus norvegicus) (protein)
chain: MDKFCNSTFWDLSLLESPEADLPLCFEQTVLVWIPLGFLWLLAPWQLYSVYRSRTKRSSITKFYLAKQVFVVFLLILAAIDLSLALTEDTGQATVPPVRYTNPILYLCTWLLVLAVQHSRQWCVRKNSWFLSLFWILSVLCGVFQFQTLIRALLKDSKSNMAYSYLFFVSYGFQIVLLILTAFSGPSDSTQTPSVTASFLSSITFSWYDRTVLKGYKHPLTLEDVWDIDEGFKTRSVTSKFEAAMTKDLQKARQAFQRRLQKSQRKPEATLHGLNKKQSQSQDVLVLEEAKKKSEKTTKDYPKSWLIKSLFKTFHVVILKSFILKLIHDLLVFLNPQLLKLLIGFVKSSNSYVWFGYICAILMFAVTLIQSFCLQSYFQHCFVLGMCVRTTVMSSIYKKALTLSNLARKQYTIGETVNLMSVDSQKLMDATNYMQLVWSSVIQITLSIFFLWRELGPSILAGVGVMVLLIPVNGVLATKIRNIQVQNMKNKDKRLKIMNEILSGIKILKYFAWEPSFQEQVQGIRKKELKNLLRFGQLQSLLIFILQITPILVSVVTFSVYVLVDSANVLNAEKAFTSITLFNILRFPLSMLPMVTSSILQASVSVDRLERYLGGDDLDTSAIRRVSNFDKAVKFSEASFTWDPDLEATIQDVNLDIKPGQLVAVVGTVGSGKSSLVSAMLGEMENVHGHITIQGSTAYVPQQSWIQNGTIKDNILFGSEYNEKKYQQVLKACALLPDLEILPGGDMAEIGEKGINLSGGQKQRVSLARAAYQDADIYILDDPLSAVDAHVGKHIFNKVVGPNGLLAGKTRIFVTHGIHFLPQVDEIVVLGKGTILEKGSYRDLLDKKGVFARNWKTFMKHSGPEGEATVNNDSEAEDDDDGLIPTMEEIPEDAASLAMRRENSLRRTLSRSSRSSSRRGKSLKNSLKIKNVNVLKEKEKEVEGQKLIKKEFVETGKVKFSIYLKYLQAVGWWSILFIILFYGLNNVAFIGSNLWLSAWTSDSDNLNGTNNSSSHRDMRIGVFGALGLAQGICLLISTLWSIYACRNASKALHGQLLTNILRAPMRFFDTTPTGRIVNRFSGDISTVDDLLPQTLRSWMMCFFGIAGTLVMICMATPVFAIIIIPLSILYISVQVFYVATSRQLRRLDSVTKSPIYSHFSETVTGLPIIRAFEHQQRFLAWNEKQIDINQKCVFSWITSNRWLAIRLELVGNLVVFCSALLLVIYRKTLTGDVVGFVLSNALNITQTLNWLVRMTSEAETNIVAVERISEYINVENEAPWVTDKRPPADWPRHGEIQFNNYQVRYRPELDLVLKGITCNIKSGEKVGVVGRTGAGKSSLTNCLFRILESAGGQIIIDGIDVASIGLHDLRERLTIIPQDPILFSGSLRMNLDPFNKYSDEEVWRALELAHLRSFVSGLQLGLLSEVTEGGDNLSIGQRQLLCLGRAVLRKSKILVLDEATAAVDLETDSLIQTTIRKEFSQCTVITIAHRLHTIMDSDKIMVLDNGKIVEYGSPEELLSNRGSFYLMAKEAGIENVNHTEL
In the case of B1, the Km is reported as 31 µM.
